The chains are these.
B1: CL-460506 (antibody, V domains shown)
VH: QVQLVESGGGVVQPGRSLRLSCAASGFTFSNYGMHWVRQAPGKGLEWMAIIWYDGSNKYYADSVKGRFTISRDNSMNTLYLQMNSLRPEDTALYYCARAFYYGSGTLDYWGQGTLVTVSS
VL: EIVLTQSPATLSVSPGERATLSCRASQSVSSHLAWYQQKFGQAPRLLIYGASNRATGIPARFSGSGSGTEFTLTISILQSEDFAVYYCQQYNNWFTFGPGTKIDIK
modifications: peptides N-terminally acetylated and C-terminally amidated
B2: CL-513462 (antibody, V domains shown)
VH: QVQLVESGGGVVQPGRSLRVSCAASGFTFSNYGMYWVRQAPGKGLEWVAVIWHDGTNKFYEDSVKGRFTISRDNSKNTLYLQMNSLRAEDTAVYYCARAGYFQGSGSFLDYWGQGTLVTVSS
VL: DIQMTQSPSTLSASVGDRVTITCRASQSISSWLAWYQQKPGKAPKLLIYKASSLESGVPSRFSGSGSGTEFTLTISSLQPDDFATYFCQQYSSYWTFGQGTKVEIK
modifications: peptides N-terminally acetylated and C-terminally amidated
B3: Ky15.7 (antibody, V domains shown)
VH: QVQVVESGGGAVQPGRSLRLSCAASGFTFSNRGMHWVRQTPGKGLEWVAIIWYDGGNKFYADSVKGRFTISRDNSKNTLYLQMNSLRDEDTAVYYCVRAGDWKADKYTMDVWGQGTTVTVSS
VL: B2 VL with L46V, K50Q, F87Y, S92N
modifications: peptides N-terminally acetylated and C-terminally amidated
B4: CL-510640 (antibody, V domains shown)
VH: QVQLVESGGGVVQPGRSLRLSCAASGFTFSNYGMHWVRQAPVKGLEWVAIIWYDGSNKFYADSVRGRFIISRDNSKNTLYLQMNSLRAEDTAVYFCARAREGQNSDYYGSETSYTFDSWGLGTLVTVSS
VL: B2 VL with L46F, F87Y, S92K
modifications: peptides N-terminally acetylated and C-terminally amidated
B5: CL-532061 (antibody, V domains shown)
VH: QVQLVESGGGVVQPGRSLRLSCVASRFTFSNYGMHWVRQTPGKGLEWVAIIWYDGSNKFYGDSVKGRFTISRDNSRNTLYLQMNNLRAEDTAVYYCARAYDDFVDHDKYGMDVWGQGTTVTVSS
VL: B2 VL with T22S, S31I, P40S, S53R, F87Y, S92N
modifications: peptides N-terminally acetylated and C-terminally amidated
B6: CL-512761 (antibody, V domains shown)
VH: QVQLVESGGGVVQPGTSLRLSCAASGFTFSNYGMHWVRQAPGKGLEWVSITWYDESNKFYADSVKGRFTISRDNSKNTLYLQMNSLRAEDTAVYYCARAYDTLTGYRAQKYGMDVWGQGTTVTVSS
VL: B2 VL with S28R, S31T, Y49N, K50E, S53R, F87Y, S92N
modifications: peptides N-terminally acetylated and C-terminally amidated
B7: Ky15.11 (antibody, V domains shown)
VH: QVQLVESGGGVVQPGRSLRLSCEASGFTFSNFGMHWVRQTPVKGLEWVAIIWFDGSYKYYTDSVKGRFTISRDNSKNTLYLQMNSLRAEDTAVYYCARARKGQRSDYYGSETSYTFDNWGQGTLVTVSS
VL: B2 VL with S30N, S31G, L46F, S53I, V58I, F87Y
modifications: peptides N-terminally acetylated and C-terminally amidated
B8: CL-437862 (antibody, V domains shown)
VH: QVQLVESGGGVVQPGRSLRLSCAASGFTFSNSGMHWVRQVPGKGLEWVAIIWYDGGNKYYADSVKGRFTISRDNSKNTLYLQMNSLRAEDTAVYYCARAYYDILTSYDKDCCYGMDVWGQGTTVTVSS
VL: not shown
modifications: peptides N-terminally acetylated and C-terminally amidated
B9: CL-510514 (antibody, V domains shown)
VH: QVQLVESGGGVVQPGRSLRLSCTTSGFTFSNFGMHWVRQAPGKGLEWVALIWYDGSNKYYADSVKGRFTISRDNSKNTLYLQMNGLRAEDTAVYYCARDGGYYYGSGGAFDIWGQGTMVTVSS
VL: not shown
modifications: peptides N-terminally acetylated and C-terminally amidated
B10: CL-513808 (antibody, V domains shown)
VH: QVQLVESGGGVVQPGRSLRLSCAASGFTFSNYGMHWVRQAPGKGLEWVAIIWYDGSNKFYADSVKGRFTISRDNSKNTLYLQMNSLRAEDTAVYYCARDDRGHSYGPYFDFWGQGTLVTVSS
VL: EIVMTQSPATLSVSPGERATLSCRASQSVSSNLAWYQQKPGQAPRLLIYGASIRATGIPARFSGSGSGTEFTLTISILQSEDFAVYYCQQCNNWPWTFGQGTKVEIK
modifications: peptides N-terminally acetylated and C-terminally amidated
B11: CL-510596 (antibody, V domains shown)
VH: QVQLEESGGGVVQPGRSLRLSCTATGFTFSNYGMHWVRQAPGKGLEWVAVIWYDGSNKYYVDSVKGRFTISRDNSKNTLYLQMNSLRAEDTAVYYCARDGGYYGSGSYWWFDSWGQGTLVTVSS
VL: not shown
modifications: peptides N-terminally acetylated and C-terminally amidated
B12: CL-510499 (antibody, V domains shown)
VH: QVQLVESGGGLVQPGRSLTLSCAASGFTFSNYGMHWVRQTPGKGLEWVALIRYDGSYKFYADSVKGRFTISRDNSKNTLYLQMNSLRAEDTAIYFCARDGDYSNSAGDFDYWGQGTLVTVSS
VL: EIVLTQSPGTLSLSPGERATLSCRASQSVSSTNLAWYQQKPGQAPRLLIYGVSSRATGIPDRFSGSGSGTDFTLTINRLEPEDFAVYYCQQHGRSFTFGPGTKVEIK
modifications: peptides N-terminally acetylated and C-terminally amidated
B13: Ky15.3 (antibody, V domains shown)
VH: QVQLVESGGGVVQPGRSLRLSCVASGFTFSNAGMHWVRQTPGKGLEWVAIIWYDGSIKYYGESVKGRFTISRDNSKNTLYLEMSSLRAEDTAVYFCVRAYSGSLYDKYGMDVWGQGTTVIVSS
VL: DIQMTQSPSTLSASVGDRVTISCRASQTISTWLAWFQQKPGKAPKLLIYAASSLQSGVPSRFSGSGSGTDFTLTISNLQPDDFATYYCQQFNSYWTFGQGTKVEIK
modifications: peptides N-terminally acetylated and C-terminally amidated
B14: CL-515341 (antibody, V domains shown)
VH: QVYLVESGGGVVQPGKSLRLSCAASGFTFSNYGMHWVRQAPGKGLEWVAIIWHDGSNKFYSDSVRGRFTISRDNSQNTLYLQMNSLSAEDTALYFCAKDIGYSNTWDYFDYWGQGTLVTVSS
VL: EIVLTQSPATLSLSPGERATLSCRASQSVNSFLAWYQQKPGQAPRLLIYDASNRATDIPDRFSGSGSGTDFTLTIRSLEPEDFAVYFCQQRSKWFTFGGGTTVEMK
modifications: peptides N-terminally acetylated and C-terminally amidated
B15: CL-511776 (antibody, V domains shown)
VH: QVQLVESGGGVVQPGRSLTLSCAASGFTFSNFGMHWVRQAPGKGLEWMAVIWYDGNNEFYADSVKGRFTISRDNSKNMLYLHMNSLRAEDTAIYYCAREGDYSASGSHWLFDPWGQGTQVTVSS
VL: DIQMTQSPSTLSASVGDSITITCRASQSINIWLAWYQQKPGKAPNLLIYKASSLESGVPSRFSGSGSGTEFTLTINSLQPDDFATYYCQQYNNYVTFGGGTKVEIK
modifications: peptides N-terminally acetylated and C-terminally amidated
B16: CL-510469 (antibody, V domains shown)
VH: QVQLVESGGGVVQPGRSLRLSCAASGFTFSSYGMHWVRQAPGKGLEWVAVIWYDGSNQFYTDSVKGRFTISRDNSKNTLYLHMNSLRVEDTAIYYCARDGDYSSSAGDFDYWGQGTLVTVSS
VL: not shown
modifications: peptides N-terminally acetylated and C-terminally amidated
B17: CL-531325 (antibody, V domains shown)
VH: QVHLVESGGGVVQPGKSLRLSCAASGFTFSNFGMHWVRQAPGKGLEWVALIWYDGSHKFYADSVQGRFTISRDNSKNTLFLQMNSLRAEDTAIYYCAKVISYGSVNYYNNYKYTMDVWGQGTTVTVSS
VL: not shown
modifications: peptides N-terminally acetylated and C-terminally amidated

Numbering of substitutions follows the chain as printed.

The target in the assay is PfCSP full length (Plasmodium falciparum (isolate NF54), UniProt P19597). Kind of assay: ELISA AUC. (In general: In an ELISA, binding on a coated surface is turned into a signal by an enzyme label.)
PfCSP full length, sequence (P19597 20-375): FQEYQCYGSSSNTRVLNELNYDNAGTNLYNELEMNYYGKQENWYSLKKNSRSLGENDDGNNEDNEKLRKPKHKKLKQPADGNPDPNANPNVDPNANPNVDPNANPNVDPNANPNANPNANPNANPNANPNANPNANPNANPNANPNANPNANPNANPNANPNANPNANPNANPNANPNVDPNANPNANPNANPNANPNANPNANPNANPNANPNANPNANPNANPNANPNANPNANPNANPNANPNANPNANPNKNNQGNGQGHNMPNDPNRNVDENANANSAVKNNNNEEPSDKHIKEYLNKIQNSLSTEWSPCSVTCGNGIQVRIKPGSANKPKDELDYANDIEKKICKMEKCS
For the molecule B1, the binding score came out at 2.2. For the molecule B2, the binding score came out at 2.47.

The molecule B3 showed a binding score of 2.3. B4 returned a binding score of 2.16. Regarding B5, the binding score was 2.47. With B6 the figure was 2.17; with B7, 2.53. Turning to B8, the binding score was 2.4. Take B9: the binding score is 2.12. In turn, B10 showed a binding score of 2.17. With B11 the figure was 1.64.

The molecule B12 had a binding score of 2.06. Regarding B13, the binding score amounted to 2.2. Turning to B14, the binding score turned out to be 2.38. The figure for B15 is 2.14; for B16 it is 2.16. For the molecule B17, the binding score stood at 2.55.

The values are drawn from PMC10720262 (2023).
